In article PMC4689322:

Target: T1, MBNL1 ZnF3/4 (Homo sapiens, UniProt Q9NR56-2 178-246)
T1 sequence: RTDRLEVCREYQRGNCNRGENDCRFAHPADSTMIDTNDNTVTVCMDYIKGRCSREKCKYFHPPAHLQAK
Test: intrinsic tyrosine fluorescence quenching

B1: hcTNT 18-nt (S10) (ssRNA)
RNA: UCGCUUUUCCCCUCCGCU
In the case of B1, the Kd is reported as 40 ± 10 nM.
